{"source": "patent US20250066503A1", "about": "“CELL INJURY INDUCING THERAPEUTIC DRUG FOR USE IN CANCER THERAPY” (CHUGAI SEIYAKU KABUSHIKI KAISHA, priority 2016, published 2025)"}
{"molecular_target": "T1, soluble human CD3 epsilon chain (human, UniProt P07766 23-126)", "T1 construct": "also called CD3ε", "T1 sequence (P07766 23-126 limits assumed)": "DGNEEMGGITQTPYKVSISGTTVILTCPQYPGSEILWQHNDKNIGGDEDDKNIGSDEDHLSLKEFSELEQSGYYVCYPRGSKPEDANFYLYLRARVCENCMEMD", "test": "SPR", "units": {"Kd": "nM"}}
{"binder": "TR01H051-E22Hh/none-Hi-Kn010G3/L0000-k0 (antibody, V domains shown, one-arm) VH: QVQLVESGGGLVQPGRSLRLSCAASGFTFSNAWMHWVRQAPGKGLEWVAQIKDKSNNYATYYAESVKGRFTISRADSKNSLYLQMNSLKTEDTAVYYCRYVHYSASYGVDIWGQGTTVTVSS VL: DIVMTQSPLSLPVTPGEPASISCRSSQSLVHSNRNTYLHWYQQKPGQAPRLLIYKVSNRFSGVPDRFSGSGSGTDFTLKISRVEAEDVGVYYCGQGTQVPYTFGQGTKLEIKR", "Kd": 29.1}
{"binder": "TR01H053-E22Hh/none-Hi-Kn010G3/L0000-k0 (antibody, V domains shown, one-arm) VH: QVQLVESGGGLVQPGRSLRLSCAASGFTFSNAWMHWVRQAPGKGLEWVAQIKDKSQNYATYYAESVKGRFTISRADSKNSLYLQMNSLKTEDTAVYYCRYVHYSASYGVDAWGQGTTVTVSS VL: DIVMTQSPLSLPVTPGEPASISCRSSQSLVHSNRNTYLHWYQQKPGQAPRLLIYKVSNRFSGVPDRFSGSGSGTDFTLKISRVEAEDVGVYYCGQGTQVPYTFGQGTKLEIKR", "Kd": 82.3}
{"binder": "TR01H057-E22Hh/none-Hi-Kn010G3/L0000-k0 (antibody, V domains shown, one-arm) VH: QVQLVESGGGLVQPGRSLRLSCAASGFTFSNAWMHWVRQAPGKGLEWVAQIKDKSQNYATYYAESVKGRFTISRDDSKNSLYLQMNSLKTEDTAVYYCRYVHYSASYGVDAWGQGTTVTVSS VL: DIVMTQSPLSLPVTPGEPASISCRSSQSLVHSNRNTYLHWYQQKPGQAPRLLIYKVSNRFSGVPDRFSGSGSGTDFTLKISRVEAEDVGVYYCGQGTQVPYTFGQGTKLEIKR", "Kd": 112}
{"binder": "TR01H055-E22Hh/none-Hi-Kn010G3/L0000-k0 (antibody, V domains shown, one-arm) VH: QVQLVESGGGLVQPGRSLRLSCAASGFTFSNAWMHWVRQAPGKGLEWVAQIKDKSNNYATYYAESVKGRFTISRDDSKNSLYLQMNSLKTEDTAVYYCRYVHYSASYGVDIWGQGTTVTVSS VL: DIVMTQSPLSLPVTPGEPASISCRSSQSLVHSNRNTYLHWYQQKPGQAPRLLIYKVSNRFSGVPDRFSGSGSGTDFTLKISRVEAEDVGVYYCGQGTQVPYTFGQGTKLEIKR", "Kd": 38.8}
{"binder": "TR01H056-E22Hh/none-Hi-Kn010G3/L0000-k0 (antibody, V domains shown, one-arm) VH: QVQLVESGGGLVQPGRSLRLSCAASGFTFSNAWMHWVRQAPGKGLEWVAQIKDKSQNYATYYAESVKGRFTISRDDSKNSLYLQMNSLKTEDTAVYYCRYVHYSASYGVDIWGQGTTVTVSS VL: DIVMTQSPLSLPVTPGEPASISCRSSQSLVHSNRNTYLHWYQQKPGQAPRLLIYKVSNRFSGVPDRFSGSGSGTDFTLKISRVEAEDVGVYYCGQGTQVPYTFGQGTKLEIKR", "Kd": 73.2}
{"binder": "TR01H058-E22Hh/none-Hi-Kn010G3/L0000-k0 (antibody, V domains shown, one-arm) VH: QVQLVESGGGLVQPGRSLRLSCAASGFTFSNAWMHWVRQAPGKGLEWVAQIKDKSQNYATYYAESVKGRFTISRDDSKNSLYLQMNSLKTEDTAVYYCRYVHYSASYGVDYWGQGTTVTVSS VL: DIVMTQSPLSLPVTPGEPASISCRSSQSLVHSNRNTYLHWYQQKPGQAPRLLIYKVSNRFSGVPDRFSGSGSGTDFTLKISRVEAEDVGVYYCGQGTQVPYTFGQGTKLEIKR", "Kd": 115}
{"binder": "TR01H054-E22Hh/none-Hi-Kn010G3/L0000-k0 (antibody, V domains shown, one-arm) VH: QVQLVESGGGLVQPGRSLRLSCAASGFTFSNAWMHWVRQAPGKGLEWVAQIKDKSQNYATYYAESVKGRFTISRADSKNSLYLQMNSLKTEDTAVYYCRYVHYSASYGVDYWGQGTTVTVSS VL: DIVMTQSPLSLPVTPGEPASISCRSSQSLVHSNRNTYLHWYQQKPGQAPRLLIYKVSNRFSGVPDRFSGSGSGTDFTLKISRVEAEDVGVYYCGQGTQVPYTFGQGTKLEIKR", "Kd": 77.9}
{"binder": "TR01H052-E22Hh/none-Hi-Kn010G3/L0000-k0 (antibody, V domains shown, one-arm) VH: QVQLVESGGGLVQPGRSLRLSCAASGFTFSNAWMHWVRQAPGKGLEWVAQIKDKSQNYATYYAESVKGRFTISRADSKNSLYLQMNSLKTEDTAVYYCRYVHYSASYGVDIWGQGTTVTVSS VL: DIVMTQSPLSLPVTPGEPASISCRSSQSLVHSNRNTYLHWYQQKPGQAPRLLIYKVSNRFSGVPDRFSGSGSGTDFTLKISRVEAEDVGVYYCGQGTQVPYTFGQGTKLEIKR", "Kd": 62.7}
